A short description of this data set: protein stability index of a GFP-peptide fusion (GPS, HEK-293T) (PSI 1-6); higher = more stable.
[1] abbreviates: treatment: DMSO, c terminus: a fixed tail appended.
Where [2] appears, read: treatment: MLN4924 1 uM, 8 h, c terminus: a fixed tail appended.

± gives the standard deviation.
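Further: 24-mer peptide tiles fused after GFP, lentivirally expressed, FACS-sorted into six equal bins by GFP/DsRed ratio, decoded by Illumina sequencing, PSI is the read-weighted mean bin number.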

In the case of REIARYLLEQGAQVNRRSAKGNTA [FEM1A], the protein stability index is, setting by setting: under setting [1], 3.29 ± 0.12; under setting [2], 3.54 ± 0.31.
RFCSEIKSSKYGEGHQAWIVGIVE [SEPHS2]: the protein stability index under setting [1] was found to be 2.23 ± 0.21 and the protein stability index under setting [2] amounted to 2.12 ± 0.37.
The like results for RGAPAVQQNIPSTLLQDHENQRLF [WAS] were, in that order, 4.25 ± 0.2 and 4.29 ± 0.15.
The like results for RGGMGSGGLATGIAGGLAGMGGIQ [KRT18] were, in that order, 3.61 ± 0.18 and 3.38 ± 0.23.
On the same counts, the results for RGGRQKYKRRIDAENSPYLNPQLV [ESRRG] are 3.59 ± 0.25 and 3.93 ± 0.21.
As for RGHQNWVYSCAFSPDSSMLCSVGA [WSB1], the protein stability index under setting [1] turned out to be 2.07 ± 0.18 and the protein stability index under setting [2] amounted to 2.03 ± 0.23.
The like results for RGNLSILAAVLVEPKLHTPMYFFL [OR3A1] were, in that order, 2.86 ± 0.46 and 3.06 ± 0.57.
On the same counts, the results for RGTQYSSLDSLDGLSLTDESDSCV [PSD2] are 5.26 ± 0.22 and 5.3 ± 0.14.
The like results for RGTYEQDGRFEKRQGNPSWKKQQK [ZNF396] were, in that order, 4.63 ± 0.34 and 4.72 ± 0.41.
Regarding RHQSIFKSNGFFHGISIPEPEDME [CDKL4], the protein stability index runs as follows: under setting [1], 3.58 ± 0.27; under setting [2], 3.87 ± 0.15.
In turn, RIFDIKDGKLLWEQELYNNFVYNS [WASL] yielded a protein stability index under setting [1] of 2.15 ± 0.67 and a protein stability index under setting [2] of 2.13 ± 0.62.
Turning to RIHERLVAGSLAGAIAQSSIYPME [SLC25A25], the protein stability index under setting [1] stood at 2.74 ± 0.52 and the protein stability index under setting [2] stood at 2.56 ± 0.27.
For RILLRMTLGREVMSPLQAMSSYTV [NLN], the protein stability index stood at 2.67 ± 1.1 under setting [1] and 2.45 ± 0.32 under setting [2].
The like results for RINLVAAIFSAPAFPAAVSSMKKF [PSD2] were, in that order, 2.37 ± 0.46 and 2.27 ± 0.59.
Regarding RIQTQKEQAKENENGELQKIILPR [ZC2HC1C], the protein stability index came to 4.77 ± 0.21 under setting [1] and 4.51 ± 0.41 under setting [2].
For RKISSLSFTLEEEEEGGEEEEEAA [FAM50A], the protein stability index turned out to be 5.53 ± 0.26 under setting [1] and 5.33 ± 0.26 under setting [2].
On the same counts, the results for RKKSADVLALADEAGYYFFNGNYK [ADAMTSL2] are 3 ± 0.22 and 3.05 ± 0.33.
On the same counts, the results for RKLLSPVSREENREDKATIKCETS [PPFIA4] are 5.11 ± 0.27 and 5.14 ± 0.26.
The like results for RKRNPSRKKQHICDECGKHFSQGS [ZNF24] were, in that order, 3.91 ± 0.19 and 4.12 ± 0.097.
Regarding RKSLALDIVDEDVKLMMSTLPKSL [MYBL2], the protein stability index was found to be 2.98 ± 0.27 under setting [1] and 2.76 ± 0.29 under setting [2].
On the same counts, the results for RLCGGKGGFGSMLRALGAQIEKTT [SDE2] are 2.59 ± 0.23 and 2.55 ± 0.45.
On the same counts, the results for RLIRELAEFEKLSDQVKISEEALR [SAT2] are 3.16 ± 0.35 and 3.43 ± 0.3.
Regarding RLKTRSWAGERSRRELCSRLQDQ [CDC25B], the protein stability index runs as follows: (treatment: DMSO, c terminus: native) 4.02 ± 0.17; (treatment: MLN4924 1 uM, 8 h, c terminus: native) 4.13 ± 0.15.
For the sequence RLVELAGQSLLKDEALAIAALELL [PRAME], the protein stability index by setting is: under setting [1], 2.17 ± 0.47; under setting [2], 2.02 ± 0.44.
The like results for RMDFAAKLMKNIRFPLMTPQELIN [KLHL13] were, in that order, 2.01 ± 0.31 and 1.94 ± 0.27.
Regarding RNARIVHLVEETRIHVLPSLNPDG [CPXM2], the protein stability index was 2.97 ± 0.037 under setting [1] and 3.2 ± 0.24 under setting [2].
RNQYEALVETNRREVEQWFATQTE [KRT33B] had a protein stability index under setting [1] of 4.37 ± 0.28 and a protein stability index under setting [2] of 4.27 ± 0.48.
On the same counts, the results for RNTLNQPCSGSVSLQPRRSIAFRL [GMCL1] are 2.41 ± 0.29 and 2.36 ± 0.11.
On the same counts, the results for RPALAQQAQGARAGGSARRPDTGD [GMCL1] are 5.28 ± 0.19 and 5.33 ± 0.13.
On the same counts, the results for RPAQAIGTQPRATKHKCRQLTKAS [SPACA9] are 4.47 ± 0.16 and 4.44 ± 0.34.
Regarding RPGVQDAALIEAIQDRLSNTLQTY [VDR], the protein stability index is, setting by setting: under setting [1], 2.78 ± 0.3; under setting [2], 3.09 ± 0.28.
The like results for RPNLETYYERVLKRKTFNKVLGHV [GDAP1] were, in that order, 2.46 ± 0.092 and 2.47 ± 0.32.
For RPQPRGLLGWGYYLIMLPFRFTYY [FAF2], the protein stability index amounted to 3.86 ± 0.18 under setting [1] and 3.48 ± 0.077 under setting [2].
On the same counts, the results for RQHHHQSSFPGSLPQETNLTLKVC are 2.89 ± 0.48 and 3.34 ± 0.56.
As for RQNLKLLVEETSCQQNMIQELIET [CEP70], the protein stability index under setting [1] was 3.42 ± 0.16 and the protein stability index under setting [2] was determined as 3.43 ± 0.45.
On the same counts, the results for RQRLLADLLHNVSQNIAAETRAED [DFFB] are 4.1 ± 0.36 and 4.09 ± 0.44.
Turning to RQVKHYRIFRLPNNWYYISPRLTF [SLA], the protein stability index by setting is: under setting [1], 2.43 ± 0.52; under setting [2], 2.14 ± 0.069.
The like results for RRFIQSCPIIRIPNRFLRGHRPPP [KLHDC10] were, in that order, 2.67 ± 0.18 and 2.73 ± 0.43.
The like results for RRSSSKCIHDHHCGSQLSSTKGSR [NETO1] were, in that order, 3.74 ± 0.33 and 3.92 ± 0.36.
As for RRVRLELWDTSGQGRFCTIFRSYS [RAB40C], the protein stability index came out at 2.35 ± 0.5 under setting [1] and 1.99 ± 0.29 under setting [2].
Turning to RSEEAVQVLIKHSADVNARDKNWQ [ANKRD44], the protein stability index is, setting by setting: under setting [1], 4.17 ± 0.22; under setting [2], 4.44 ± 0.33.
The like results for RSEFTLMAKRIGKDLSNTFAKLEK [STX5] were, in that order, 2.51 ± 0.33 and 2.31 ± 0.33.
The sequence RSLANGPNAGEQPGQVAGADFESE [EID1] yielded a protein stability index under setting [1] of 5.22 ± 0.24 and a protein stability index under setting [2] of 5.74 ± 0.18.
The like results for RSLQDLARIAIRGTIKKIIHQETV [PCMTD2] were, in that order, 2.39 ± 0.32 and 2.52 ± 0.65.
In the case of RSTCVYVCALSALPAGPLPAPLLV [PLEKHN1], the protein stability index came to 3.18 ± 1.1 under setting [1] and 2.88 ± 0.71 under setting [2].
On the same counts, the results for RTPLIKLSPKKTWEGFIGGFFSTV [CDS1] are 2.03 ± 0.16 and 1.88 ± 0.37.
The like results for RTSRKFLACRLTPDMETKLLFMTS [INTS3] were, in that order, 2.49 ± 0.37 and 2.33 ± 0.39.
On to RTVGFEEQASAFQEQEIDGKSLLL [SAMD13], for which the protein stability index reads like this: under setting [1], 4.55 ± 0.2; under setting [2], 4.85 ± 0.18.
RVMKVEDREGPSSSKLVTKKAPQP [HDAC6]: the protein stability index by setting is: under setting [1], 4.93 ± 0.26; under setting [2], 5.14 ± 0.077.
Turning to RVQVLKNEVRRGSPVLLGWVEQAY [TIAF1], the protein stability index under setting [1] turned out to be 2.37 ± 0.18 and the protein stability index under setting [2] turned out to be 2.21 ± 0.37.
On the same counts, the results for RVRFGQQKRYQDWFQRQYLSTPDS [INTS3] are 2.85 ± 0.23 and 3.07 ± 0.14.
For RVYLATDDPSLLKEAKTKYPNYEF [FUT8], the protein stability index reads like this: under setting [1], 2.95 ± 0.36; under setting [2], 2.9 ± 0.28.
On the same counts, the results for RWDMADNEQVLTTEHEKKQKLETD [YJU2B] are 5.39 ± 0.32 and 5.37 ± 0.21.
With RYDPQTNEWRMVASMSKRRCGVGV [KLHL20], the protein stability index turned out to be 2.71 ± 0.16 under setting [1] and 2.75 ± 0.3 under setting [2].
The like results for RYVFEAVIRWIAHDTEIRKVHMKD [GAN] were, in that order, 2.74 ± 0.84 and 2.4 ± 0.65.
On the same counts, the results for SALAPSVFKQAKDKVSDGVTKSPE [MAP2] are 5.44 ± 0.22 and 5.44 ± 0.18.
The like results for SALEGRADTTTGSAAGPPLSEDDK [EHMT1] were, in that order, 5.14 ± 0.83 and 5.38 ± 0.43.
For the sequence SALQSLLQHLIGLSNLTHVLYPVP [PRAME], the protein stability index was determined as 3.36 ± 0.28 under setting [1] and 3.2 ± 0.16 under setting [2].
On the same counts, the results for SARIGQNCSIGPNVSLGPGVVVED [GMPPB] are 4.49 ± 0.33 and 4.58 ± 0.23.
On the same counts, the results for SARWLEVLRTYLELVLCVLVSIRN [FBXO33] are 2.33 ± 0.31 and 2.16 ± 0.21.
On the same counts, the results for SCMASLWTAPLVMRTTNLDNRCKL [CDC25A] are 2.33 ± 0.084 and 2.43 ± 0.15.
Consider SCRRKQEDDRDGLLAEREQEEAIA [TMEM106C], for which the protein stability index runs as follows: under setting [1], 5.45 ± 0.33; under setting [2], 5.42 ± 0.091.
The like results for SDDSDEDEPCAISGKWTFQRDSKR [DLC1] were, in that order, 5 ± 0.13 and 4.83 ± 0.069.
Turning to SDKIGSTIDDTISKFRRKDREDSP [CLINT1], the protein stability index under setting [1] was found to be 5.1 ± 0.4 and the protein stability index under setting [2] amounted to 5.21 ± 0.3.
With SDQVKISEEALRADGFGDNPFYHC [SAT2], the protein stability index came to 4.16 ± 0.28 under setting [1] and 4.25 ± 0.24 under setting [2].
In the case of SDSEANGFAERRIDKFGFIVGSQG [TBC1D10A], the protein stability index by setting is: under setting [1], 4.14 ± 0.35; under setting [2], 4.07 ± 0.34.
As for SDSVIMTGSYNNFFRMFDRNTKRD [PPP2R2B], the protein stability index was 3.55 ± 0.18 under setting [1] and 3.63 ± 0.19 under setting [2].
On to SDVICDFPFQAMVQFHRHHGQEGS [GMPPB], for which the protein stability index is, setting by setting: under setting [1], 3.12 ± 0.32; under setting [2], 3.19 ± 0.28.
Consider SEEAPGGTELIQTPLASSTDHQTP [HDAC6], for which the protein stability index by setting is: under setting [1], 5.49 ± 0.4; under setting [2], 5.51 ± 0.34.
Regarding SEIEMAKAQRDYELKKAAYDIEVN [FLOT1], the protein stability index by setting is: under setting [1], 4.89 ± 0.29; under setting [2], 5.02 ± 0.17.
Regarding SEMAEDLCKIGSERSLVLDRLASN [IKZF1], the protein stability index reads like this: under setting [1], 4.56 ± 0.38; under setting [2], 4.73 ± 0.2.
On the same counts, the results for SFGGEWSAPDTMKRYSMYLTPKGG [TRIM29] are 3.09 ± 0.51 and 3.09 ± 0.48.
